For series [1], the target named is γ-tubulin ring complex (γTuRC), endogenous Xenopus laevis, P23330;Q5U4M5. Nature of the series: pull-down from Xenopus egg extract, western blot quantification. To be noted: control (beads) bar est. 0.19, read off a plot; for ratio to parent: parent: est. 1.0; for response: scale: normalized band intensity.
Series [2] deals with AU1-human γTuNA (from Strep-His-Halo-3C-AU1-human γTuNA after PreScission cleavage) (human). Nature of the series: co-sedimentation; γTuRC pulled from egg extract on Halo-3C-AU1-human γTuNA beads, eluted by 3C cleavage, 10–50% w/w sucrose gradient (200,000 g, 2 °C, 3 hr); AU1 in the peak γTuRC fraction by western blot against a titration of AU1. For orientation: Immunoblotting shows a protein as a band on a membrane.

Series [3] addresses Strep-His-TEV-HaloTag-3C-Xenopus γTuNA I67A (Xenopus laevis). The series is described as follows: pull-down; Halo-Magne beads coupled to N-terminally Halo-tagged γTuNA baits; 200 µL Xenopus egg extract + 800 µL CSFxB (2% sucrose), 2 hr at 4 °C, washed twice, boiled in SDS sample buffer; western blot of GCP5 and γ-tubulin, band intensities normalised to the wildtype bait.
The target of series [4] is Strep-His-TEV-HaloTag-3C-Xenopus γTuNA L70A (Xenopus laevis). The series is described as above.
The target in series [5] is Strep-His-TEV-HaloTag-3C-Xenopus γTuNA (Xenopus Cdk5rap2 aa 56–101), wildtype (Xenopus laevis). The series is described as follows: pull-down; depletion of Xenopus egg extract with Strep-His-Halo-Xenopus γTuNA-coupled beads, a single round; γ-tubulin left in the extract by western blot against mock-treated extract.
Series [6] deals with γ-tubulin ring complex (γTuRC), endogenous Xenopus laevis (Xenopus laevis (endogenous in egg extract)) (UniProt P23330).
Chain of γ-tubulin ring complex (γTuRC), endogenous Xenopus laevis (Xenopus laevis (endogenous in egg extract)) (P23330 whole entry, looked up, one chain of several): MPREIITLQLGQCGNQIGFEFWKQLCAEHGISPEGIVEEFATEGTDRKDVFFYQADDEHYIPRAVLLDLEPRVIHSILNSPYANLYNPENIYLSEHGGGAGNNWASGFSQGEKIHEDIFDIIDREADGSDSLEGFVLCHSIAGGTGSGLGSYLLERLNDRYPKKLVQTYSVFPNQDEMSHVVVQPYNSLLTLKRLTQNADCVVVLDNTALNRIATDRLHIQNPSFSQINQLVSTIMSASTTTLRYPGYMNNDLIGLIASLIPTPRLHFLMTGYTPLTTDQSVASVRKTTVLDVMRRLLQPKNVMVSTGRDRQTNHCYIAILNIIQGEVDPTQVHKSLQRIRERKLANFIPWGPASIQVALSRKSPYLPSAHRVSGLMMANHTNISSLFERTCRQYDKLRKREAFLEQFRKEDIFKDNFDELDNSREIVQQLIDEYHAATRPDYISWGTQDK
For series [7] the target is unchanged. This is another data set of the same source.
Series [8] concerns the molecule itself. Nature of the series: SEC; Superdex 200 increase 10/300 GL, ~50 µM (monomer), CSFxB with 6 mM BME without sucrose, 4 °C, 0.7 mL/min; peak retention volumes compared. Background: SEC sorts molecules by how far they enter the pores of the column.

No end group written: not given here. 3C = human rhinovirus 3C (PreScission) protease cleavage site; TEV = tobacco etch virus protease cleavage site; Strep‑His = not defined here

As for “Strep-His-TEV-HaloTag-3C-human γTuNA (human CDK5RAP2 aa 53–98), wildtype I67D; L70D; L77D”, in series [1] (N=3), the ratio to parent is 0.07. “Strep-His-TEV-HaloTag-3C-Xenopus γTuNA (Xenopus Cdk5rap2 aa 56–101), wildtype I67D; L70D”: the response in series [1] (N=3, parent: est. 1.06) is 0.01.

In the case of “γ-tubulin ring complex (γTuRC), endogenous Xenopus laevis (from UniProt P23330 1-451; Q5U4M5 1-72)”, in series [2], the percent of purified γTuRCs that retain a γTuNA dimer amounted to 33%. Besides, the γTuRC pulled down, percent of wildtype in series [3] was found to be 67%; in series [4], 35%. In series [5], this molecule had a percent of γ-tubulin signal lost from the extract after one depletion greater than 75%. As to “Strep-His-TEV-HaloTag-3C-Xenopus γTuNA (Xenopus Cdk5rap2 aa 56–101), wildtype F63A”, the ratio to parent in series [1] (N=2) was 0.66.

Consider “Strep-His-TEV-HaloTag-3C-human γTuNA (human CDK5RAP2 aa 53–98), wildtype I67D; L70D”, for which the ratio to parent in series [1] (N=3) was determined as 0.1.

Regarding “Strep-His-TEV-HaloTag-3C-human γTuNA (human CDK5RAP2 aa 53–98), wildtype I67A; L70A”, the response in series [1] (N=2, human wildtype not shown in this panel) was found to be 0.16. Turning to “Strep-His-Xenopus γTuNA I67A (domain or fragment)”, the MT number (EB1 spots) in egg extract with 2 µM γTuNA, relative to wildtype γTuNA (% of wildtype) in series [6] is 50. Still for that read-out and setting: the result for “Strep-His-Xenopus γTuNA L70A (domain or fragment)” reads 6. For the molecule “Strep-His-TEV-HaloTag-3C-Xenopus γTuNA (Xenopus Cdk5rap2 aa 56–101), wildtype F75A”, the ratio to parent in series [1] (N=2) came to 0.08. For the same molecule, in series [1] (N=3, parent: est. 1.06), the response came to 0.02. Take “Strep-His-Xenopus γTuNA, wildtype (domain or fragment)”: in series [7], the MT number (EB1 spots) in Xenopus egg extract by TIRF, titration of γTuNA up to 3.6 µM, fold over buffer turned out to be 75 fold. Regarding “Strep-His-TEV-HaloTag-3C-Xenopus γTuNA (Xenopus Cdk5rap2 aa 56–101), wildtype L77A”, the ratio to parent in series [1] (N=2) was 0.05.

B1: Strep-His-TEV-HaloTag-3C-human γTuNA (human CDK5RAP2 aa 53–98), wildtype (domain or fragment)
chain: {Strep‑His-TEV-HaloTag-3C}-SPTRARNMKDFENQITELKKENFNLKLRIYFLEERMQQEFHGPTEH
modifications: reading uncertain
notes: γTuNA (CM1) domain of human CDK5RAP2 isoform A (1893 aa), aa 53–98; TEV and PreScission (3C) cleavage sites lie between the tags and γTuNA; also called Halo-human γTuNA; human wildtype Halo-γTuNA; source: E. coli Rosetta 2 (DE3), purified (Strep-Tactin); not shown: StrepTagII, N-terminal, kept; 6xHis, N-terminal, kept; HaloTag, N-terminal, kept
For orientation: stoichiometry N means a count of units in the complex or per binding partner. As to B1, in series [8], the “stoichiometry N” value amounted to 2.

B2: Strep-His-TEV-HaloTag-3C-Xenopus γTuNA F75A (Xenopus F71A) (domain or fragment, Xenopus laevis)
chain: {Strep‑His-TEV-HaloTag-3C}-MKDFEKQIAELKKENANLKLRIYFLEEQVQQKCDNSSEDLYRMNIE
modifications: reading uncertain
notes: γTuNA of Xenopus laevis Cdk5rap2 isoform X1, aa 56–101; it is F71 in Xenopus; also called Halo-Xenopus γTuNA F75A; Xenopus F75A mutant; source: E. coli Rosetta 2 (DE3), purified (Strep-Tactin); not shown: StrepTagII, N-terminal, kept; 6xHis, N-terminal, kept; HaloTag, N-terminal, kept
For the molecule B2, in series [8], the binding result is listed as “binds”.

B3: Strep-His-TEV-HaloTag-3C-Xenopus γTuNA (Xenopus Cdk5rap2 aa 56–101), wildtype (domain or fragment, Xenopus laevis)
chain: {Strep‑His-TEV-HaloTag-3C}-MKDFEKQIAELKKENFNLKLRIYFLEEQVQQKCDNSSEDLYRMNIE
modifications: reading uncertain
notes: γTuNA (CM1) domain of Xenopus laevis Cdk5rap2 isoform X1 (905 aa), aa 56–101; TEV and PreScission (3C) cleavage sites lie between the tags and γTuNA; also called Halo-Xenopus γTuNA; Strep-His-Halo-Xenopus γTuNA; source: E. coli Rosetta 2 (DE3), purified (Strep-Tactin); not shown: StrepTagII, N-terminal, kept; 6xHis, N-terminal, kept; HaloTag, N-terminal, kept
As to B3, the “stoichiometry N” value in series [8] was found to be 2.
